T1: Mouse CD44 extracellular domain, recombinant (mouse, UniProt P15379 23-685)
T1 construct: CD44, mouse, extracellular domain; also called mCD44; murine CD44; source: expi293 cells, purified from the conditioned medium
T1 sequence (looked up): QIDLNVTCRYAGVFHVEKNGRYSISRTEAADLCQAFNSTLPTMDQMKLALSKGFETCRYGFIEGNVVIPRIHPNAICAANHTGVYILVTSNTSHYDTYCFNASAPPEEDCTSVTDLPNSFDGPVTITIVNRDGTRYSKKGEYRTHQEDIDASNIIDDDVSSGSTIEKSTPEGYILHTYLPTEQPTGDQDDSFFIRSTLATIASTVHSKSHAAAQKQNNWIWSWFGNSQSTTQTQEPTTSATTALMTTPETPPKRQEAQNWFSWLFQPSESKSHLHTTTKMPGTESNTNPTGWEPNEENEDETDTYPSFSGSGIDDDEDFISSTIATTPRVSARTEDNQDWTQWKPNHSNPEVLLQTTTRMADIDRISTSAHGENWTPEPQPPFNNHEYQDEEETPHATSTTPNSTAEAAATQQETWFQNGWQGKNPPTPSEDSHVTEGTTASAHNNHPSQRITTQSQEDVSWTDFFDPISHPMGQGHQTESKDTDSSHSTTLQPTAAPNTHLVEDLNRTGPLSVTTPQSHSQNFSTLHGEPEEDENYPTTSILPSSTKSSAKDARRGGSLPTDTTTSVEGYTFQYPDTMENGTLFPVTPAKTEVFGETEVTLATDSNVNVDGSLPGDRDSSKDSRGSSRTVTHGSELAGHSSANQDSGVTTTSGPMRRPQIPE


Assays:
[1] = target: T1, Mouse CD44 extracellular domain, …; experiment: ITC; TGM D4-5 fragments with mouse or human CD44 extracellular domain; 25 mM Na2HPO4, 50 mM NaCl, pH 6.0, 35 °C; two datasets globally fit (NITPIC, SEDPHAT); conditions: both partners purified
[2] = target: T2, Human CD44 extracellular domain, recombinant (human, UniProt P16070 21-649); experiment: as above; conditions: both partners purified
T2 construct: CD44, human, extracellular domain; also called hCD44; source: expi293 cells, purified from the conditioned medium
T2 sequence (P16070 21-649): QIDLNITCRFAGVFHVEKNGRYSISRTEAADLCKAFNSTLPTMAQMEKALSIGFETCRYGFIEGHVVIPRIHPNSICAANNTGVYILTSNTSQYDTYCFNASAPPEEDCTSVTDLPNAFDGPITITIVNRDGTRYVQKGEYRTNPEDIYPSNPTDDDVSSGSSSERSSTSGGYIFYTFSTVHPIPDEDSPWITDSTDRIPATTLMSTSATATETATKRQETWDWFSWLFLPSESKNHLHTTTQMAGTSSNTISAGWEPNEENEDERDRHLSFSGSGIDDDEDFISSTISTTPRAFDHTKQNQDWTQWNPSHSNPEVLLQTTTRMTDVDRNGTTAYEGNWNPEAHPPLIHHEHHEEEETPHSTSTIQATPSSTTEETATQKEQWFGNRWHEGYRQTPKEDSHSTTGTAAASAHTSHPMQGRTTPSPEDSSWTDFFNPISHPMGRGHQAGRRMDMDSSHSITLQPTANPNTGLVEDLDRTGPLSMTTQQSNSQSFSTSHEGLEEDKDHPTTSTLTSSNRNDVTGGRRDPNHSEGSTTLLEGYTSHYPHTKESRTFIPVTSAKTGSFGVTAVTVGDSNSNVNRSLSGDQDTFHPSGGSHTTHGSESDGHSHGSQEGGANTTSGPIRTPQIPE

Row | Binder | Kd [1] | Kd [2]
1 | TGM1 D4-5, recombinant (domain or fragment) RCKPLEANESVHYEYFTMTNETDKKKGPPAKVGKSGKYPEHTCVKKVCSKWPYTCSTGGPIFGECIGATWNFTALMECINARGCSSDDLFDKLGFEKVIVRKGEGSDSYKDDFARFYATGSKVIAECGGKTVRLECSNGEWHEPGTKTVHRCTKDGIRTL | 30 nM | 122 nM
2 | TGM4 D4-5, recombinant (domain or fragment, biotinylated in the streptavidin pull-downs; Alexa Fluor 488 label in flow cytometry; unlabelled in ITC and as competitor) RCKPLETNVSVHYEYFTMTNETGRKEGTPAEVDKGGKYPQHTCVRKFCDKSPYTCSVKGPIFGECLDGQWNFTALDECLNARGCNSDDLFDKLGFEGVMVREEEGSDSYKDDFVRFYATGSKVNAECKGKTVQLECSDGEWHDPGTKTVHRCTKEGIRAL | 20 nM | 78 nM
